# Source: patent publication US20250177482
# Columns and labels:
# [1] = test system: CFI-HSA (human serum albumin fused to the N-terminal end of wild type CFI)
# [2] = test system: Complement Component 3b (C3b) in vitreous humor of African Green Monkeys
Substance,activation (cleavage of CFI-HSA into its activated form) [1],"ratio of C3b/iC3b in vitreous humor (chemiluminescent western blot, densitometry) [2]"
recombinant furin,more than 90% activation of the protein,–
CFI-HSA (human serum albumin fused to the N-terminal end of wild type CFI),–,showing a significant increase in cleavage in eyes receiveing a 1.0 mg injection of CFI-HSA compared to vehicle controls
